Results reported in patent US20240010747A1, “ANTI-MRP4 (ENCODED BY ABCC4 GENE) ANTIBODIES AND USES THEREOF” (Kenjockety Biotechnology, Inc., priority 2020, published 2024).

T1: human ABCC4 (Homo sapiens, UniProt O15439)
T1 construct: expressed in transfected cells
T1 sequence (O15439 1-1325): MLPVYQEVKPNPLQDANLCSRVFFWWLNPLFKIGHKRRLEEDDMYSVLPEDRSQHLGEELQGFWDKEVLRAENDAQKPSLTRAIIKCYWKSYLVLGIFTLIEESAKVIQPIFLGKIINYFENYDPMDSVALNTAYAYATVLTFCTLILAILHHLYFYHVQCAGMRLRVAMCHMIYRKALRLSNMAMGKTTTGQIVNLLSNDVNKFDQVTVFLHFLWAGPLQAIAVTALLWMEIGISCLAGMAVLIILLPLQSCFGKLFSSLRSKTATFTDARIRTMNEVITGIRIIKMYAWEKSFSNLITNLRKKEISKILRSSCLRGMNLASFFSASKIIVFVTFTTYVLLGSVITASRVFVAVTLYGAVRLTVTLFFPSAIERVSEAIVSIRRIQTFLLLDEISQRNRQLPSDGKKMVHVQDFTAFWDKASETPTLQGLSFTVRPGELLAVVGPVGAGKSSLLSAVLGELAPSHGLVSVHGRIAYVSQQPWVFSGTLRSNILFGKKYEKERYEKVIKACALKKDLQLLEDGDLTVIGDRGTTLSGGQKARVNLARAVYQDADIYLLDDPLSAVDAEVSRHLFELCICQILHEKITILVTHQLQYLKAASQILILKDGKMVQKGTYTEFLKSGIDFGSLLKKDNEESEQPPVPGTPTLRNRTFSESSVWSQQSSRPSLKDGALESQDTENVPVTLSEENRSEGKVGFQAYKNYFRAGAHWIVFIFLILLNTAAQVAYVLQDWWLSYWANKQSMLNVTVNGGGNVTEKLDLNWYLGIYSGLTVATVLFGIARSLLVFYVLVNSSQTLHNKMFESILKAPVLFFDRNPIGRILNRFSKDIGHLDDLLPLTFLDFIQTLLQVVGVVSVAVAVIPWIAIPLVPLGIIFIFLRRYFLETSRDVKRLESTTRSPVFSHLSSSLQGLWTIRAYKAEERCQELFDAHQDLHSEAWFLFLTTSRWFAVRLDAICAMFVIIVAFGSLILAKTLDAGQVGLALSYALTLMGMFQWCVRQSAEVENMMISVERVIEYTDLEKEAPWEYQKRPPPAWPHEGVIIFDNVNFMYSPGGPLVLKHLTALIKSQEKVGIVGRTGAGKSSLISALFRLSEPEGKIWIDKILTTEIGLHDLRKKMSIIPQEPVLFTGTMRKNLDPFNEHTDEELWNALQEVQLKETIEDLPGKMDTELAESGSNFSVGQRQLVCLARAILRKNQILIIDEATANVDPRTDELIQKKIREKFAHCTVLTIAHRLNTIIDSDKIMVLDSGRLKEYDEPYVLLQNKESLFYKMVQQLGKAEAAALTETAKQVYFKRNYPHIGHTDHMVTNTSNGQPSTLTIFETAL


What was measured:
human ABCC4 = target: T1, human ABCC4; assay: Flow cytometry (FACS) binding to C6 cells stably transfected to express human ABCC4 (different experiment, Table 4); settings: C6 cells stably transfected to express human ABCC4, FACS; different experiment, Table 4
Experimental: (§1) Binding titration of recombinant antibodies to ABCC4 transfectants was performed by serial dilution of antibodies from about 666 nM. Diluted antibody in flow cytometry buffer was incubated with cells on ice for 30 min. After 2 washes with flow cytometry buffer, bound antibody was detected with PE-labeled F(ab′)2 fragment goat anti-human IgG (Jackson ImmunoResearch) diluted 1:200 in flow cytometry buffer and incubated with cells for 20 min on ice. After 2 washes with flow cytometry buffer fluorescence was measured on an Attune N×T flow cytometer. Data were analyzed with GraphPad Prism 8.0 software to determine EC50's.
(§2) Human embryonic kidney HEK 293T cells and murine C6 (ATCC CCL-107) were transfected with human or cynomolgus ABCC4 cDNA with C-terminal fused FLAG tag in a pMONO-hygro vector with Lipofectamine 3000 (Invitrogen #L3000001). The cells were treated with 0.2 mg/ml and 0.5 mg/ml hygromycin respectively for about 2 weeks while cultivated in DMEM and 10% FBS with 0.2 mg/ml hygromycin and 0.5 mg/ml hygromycin, respectively. The cells were washed with PBS, and stained with […] of anti-FLAG-PE after fixing and permeablization. Clones expressing ABCC4 were single-cell sorted into 200 μl DMEM with 10% FBS using a BD Aria FACS machine and cultivated in 96 well plates using standard techniques in an incubator at 37° C. and 5% CO 2. Two weeks later clones expressing high levels of ABCC4 were screened and amplified.
(§3) Antibody binding to cells was evaluated by flow cytometry. Murine C6 cells stably transfected to express human or cynomolgus ABCC4 were washed once in flow cytometry buffer (PBS+2% FBS+0.02% sodium azide), resuspended at 2×10^6 cells/mL in flow cytometry buffer, and dispensed into 96-well microtiter plates at 0.1 mL/well. Recombinant antibodies were added to cells at 5 ug/mL for initial binding confirmation, or serially diluted from 100 ug/mL in flow cytometry buffer. After incubating cells on ice for 30 min, cells were washed twice with flow cytometry buffer. Bound antibody was detected with PE-labeled F(ab′)2 fragment goat anti-human IgG (Jackson ImmunoResearch) and evaluated on an Attune N×T flow cytometer. EC50 is calculated to be the concentration of antibody that gives half maximal response.
(§4) In a different experiment, using a different C6.cC4 cell line, detecting the binding of anti-ABCC4 antibodies to C6 cells stably transfected to express human ABCC4 measured by FACS and to C6 cells stably transfected to express cynomolgus ABCC4 measured by FACS, the results set forth in Table 4 were obtained. Negative (−)=Rmax (MFI) below background level. Positive (+)=MFI>3× background level.

cynomolgus ABCC4 = assay: Flow cytometry (FACS) binding to C6 cells stably transfected to express cynomolgus ABCC4 (different experiment, different C6.cC4 cell line, Table 4); design: key to Cynomolgus ABCC4 binding: Negative (−)=Rmax (MFI) below background level; Positive (+)=MFI>3× background level; settings: different C6.cC4 cell line, C6 cells stably transfected to express cynomolgus ABCC4, FACS; Table 4
Experimental: as §1, §2, §3, §4

Molecule	Human ABCC4 binding (human ABCC4)	Cynomolgus ABCC4 binding (cynomolgus ABCC4)
C4.1047A: anti-ABCC4 antibody raised in rats; VH SEQ ID NO: 20, VL SEQ ID NO: 140 (antibody, V domains shown) VH: EVQLMESGPGLVQPSQTLSLTCTVSGLSLISNNINWVRQPPGKGLEWIGAISGGGSAFYNSALKSRLSFSRDTSKSQVFLKMNSLQTEDTAIYFCARGGSEDPDYFDYWGQGVMVTVSS VL: ETVMTQTPSSLAVSAGETVTINCRSSQSLLYSGNQKNYLAWYQQKPGQSPKLLIYWSSTRQYGVPDRFIGSGSGTDFTLTISSVQAEDLAIYYCQQYYDTPLTFGSGTKLELK	+ (Positive (+)=MFI>3× background level)	−
C4.1052: anti-ABCC4 antibody raised in rats; VH SEQ ID NO: 20, VL SEQ ID NO: 141 (antibody, V domains shown) VH: EVQLMESGPGLVQPSQTLSLTCTVSGLSLISNNINWVRQPPGKGLEWIGAISGGGSAFYNSALKSRLSFSRDTSKSQVFLKMNSLQTEDTAIYFCARGGSEDPDYFDYWGQGVMVTVSS VL: DIVMTQSPSSLAVSAGETVTINCKSSQSLLYSGNQKNYLAWYQQKPGQSPKLLIYWSSTRQSGVPDRFMGSGSGTDFTLTISSVQAEDLAIYYCQQYYDTPLTFGSGTKLEIK	+ (Positive (+)=MFI>3× background level)	−
C4.994: anti-ABCC4 antibody raised in rats; VH SEQ ID NO: 17, VL SEQ ID NO: 137 (antibody, V domains shown) VH: QIQLVQSGPELKKPGESVKISCKASGYTFTDYAIHWVTQAPGKGLKWMGWISTYTGKTTYTDDFKGRFVFSLDASASTANLQINNLKNEDTAAYFCARGGLQWFDYWGQGTLVTVSS VL: EILLTQSPTAMAASPGEKVTITCRASFRVSYMHWYQQKPGASPKPWIYDTSKLASGVPTRFSGSGSGTSYSFTISSMETEDTATYYCQQWTSNSRTFGGGTKLVLK	+ (Positive (+)=MFI>3× background level)	−
C4.1006: anti-ABCC4 antibody raised in rats; VH SEQ ID NO: 19, VL SEQ ID NO: 139 (antibody, V domains shown) VH: EVQLTESGPGLVQPSQTLSLTCTVSGFSLTSYDVHWVRQPPGKGLEWMGRMQNGGSTDYNSALKSRLSISRDTSKSQVFLKMNSVQTEDTAMYFCVRSFIIRGYWGQGASVTVSS VL: DIVMTQGALPNPVPSGESASITCQSSKSLLYSDGKTYLNWYLQRPGQSPQLLIYWMSIRASGVSDRFSGSGSGTDFTLKISRVEAEDVGVYYCQQFLEFPYTFGAGTKLEIK	+ (Positive (+)=MFI>3× background level)	−
C4.1071: anti-ABCC4 antibody raised in rats; VH SEQ ID NO: 23, VL SEQ ID NO: 145 (antibody, V domains shown) VH: EVQWKESGPGLVQPSQTLSLTCTVSGFSLTSYGVSWVRQPPGKGLEWIGAIWSGGGTDYNSALKSRLSISRDTSKSQVLLKMNSLQTEDTAMYFCAGNHYFDYWGQGTMVTVSS VL: AIQVTQSPNSLSASLGDRVTLTCRASQDINNKMAWYQQKPGEVPQLLIYSASTLQSGTPSRFSGSGSGTDFSFTISHLQSEDFATYYCLQGYSLYTFGAGTKLELKRADAAP	+ (Positive (+)=MFI>3× background level)	−

Further lines, with some results ahead:

Human ABCC4 binding (human ABCC4)	Molecule	Cynomolgus ABCC4 binding (cynomolgus ABCC4)
+ (Positive (+)=MFI>3× background level)	C4.1078: anti-ABCC4 antibody raised in rats; VH SEQ ID NO: 26, VL SEQ ID NO: 147 (antibody, V domains shown) VH: EVQLVESGGGLVQPGGSLRLSCAASGFTFTDFYMSWIRQPPGKTPEWLGVIRNKAYVYTTEYNPSVKGRFTISRDNTQNILYLQMNTLRVEDTAIYYCARNWEGFASWGQGTLVTVSS VL: DVVMTQTPPSLSVAIGQSVSISCKSSQSLVYSDGKTYLHWLLENSGRSPKRLIYRVSNLDSGVPDRFSGTGSQKDFTLKISRVEAQDLGVYYCAQTTHFPWTFGGGTKLELK	−
+ (Positive (+)=MFI>3× background level)	C4.1138: anti-ABCC4 antibody raised in rats; VH SEQ ID NO: 29, VL SEQ ID NO: 149 (antibody, V domains shown) VH: EVQLKESGPGLVKPSETLSLTCTVSGFSLTSYHVSWVRQPPGKGLEWMGVIWGDGNTAYNSALKSRLSINRDTSKSQVFLKMNSLQTEDTATYYCARHPYYSIPYWGQGASVTVSS VL: DIVLTQSPTTMAAFPGEKVTITCRASSSVSYMYWYQQKSGASPKSWIYETSKLASGVPDRFSGSGSGTSYSFTISSMETEDAATYYCHQWSSIPLTFGSGTKLEIK	−
+ (Positive (+)=MFI>3× background level)	C4.1145: anti-ABCC4 antibody raised in rats; VH SEQ ID NO: 32, VL SEQ ID NO: 151 (antibody, V domains shown) VH: EVKLVESGGGLVQPGRSLKLSCAASGFTFSNYDMAWVRQAPTKGLEWVASIIPSGGTSYYRDSVKGRFTVSRDNAKSTLYLQMDSLRSEDTATYYCARLTTSHYYVMDAWGQGASVTVSS VL: DIWMTQSPTSMSISVGDRVTMNCKASQNVGSNVDWYQQKTGQSPKLLIYKASNRYTGVPDRFTGSGSGTDFTFTISNMQAEDLAVYYCMQSNSYPWTFGGGTKLELK	−
+ (Positive (+)=MFI>3× background level)	C4.1146: anti-ABCC4 antibody raised in rats; VH SEQ ID NO: 32, VL SEQ ID NO: 152 (antibody, V domains shown) VH: EVKLVESGGGLVQPGRSLKLSCAASGFTFSNYDMAWVRQAPTKGLEWVASIIPSGGTSYYRDSVKGRFTVSRDNAKSTLYLQMDSLRSEDTATYYCARLTTSHYYVMDAWGQGASVTVSS VL: DIWMTKSPSSMSASLGDRVTITCQASQDIGNNLIWFQQKPGKSPRRMIYYATNLANGVPSRFSGSRSGSDYSLTIISLESEDMADYHCLQYKQYPYTFGAGTKLEIK	−
